This passage reports stoichiometry N results from paper PMC9554411.

For this assay, the target named is MERS-CoV spike glycoprotein ectodomain (EMC strain, spike residues 1-1290), trimer (MERS-CoV (EMC strain)) (UniProt K0BRG7). In words: cryo-EM structure.

As a reminder, the stoichiometry N is the number of molecules, sites or subunits per partner or assembly. In turn, “MERS-CoV spike glycoprotein ectodomain (EMC strain, spike residues 1-1290), trimer (from UniProt K0BRG7 18-1290) (domain or fragment)” returned a stoichiometry N of 3.
